Our source for the Kd values is patent publication US20220356256A1 (published 2022).

Targets include 5057 Fz4 B8; 5067 Fz4 C6; 5074 Fz4 D1; 5039 Fz4 A2; 5045 Fz4 A8; 5056 Fz4 B7; 5073 Fz4 C12; 5054 Fz4 B5; 5048 Fz4 A11; 5075 Fz4 D2.
Holding throughout (test): SPR
Background: In SPR one partner is held on a chip, and binding of the other changes the refractive index at the surface.

B1: FZD4 (Fc fusion)
chain: FGDEEERRCDPIRISMCQNLGYNVTKMPNLVGHELQTDAELQLTTFTPLIQYGCSSQLQFFLCSVYVPMCTEKINIPIGPCGGMCLSVKRRCEPVLKEFGFAWPESLNCSKFPPQNDHNHMCMEGPGDEEVPLPHKTPIQPGEE
As a reminder, the Kd is the constant that tells how readily two partners part at equilibrium. High values mean a looser complex, low ones a tighter complex. Turning to B1, the Kd with 5057 Fz4 B8 amounted to 2.56 nM; in the assay with 5067 Fz4 C6, 1.63 nM; with 5074 Fz4 D1 it was 3.61 nM; with 5039 Fz4 A2, 2.57 nM; with 5045 Fz4 A8, 1.3 nM; with 5056 Fz4 B7, 1.14 nM. Moreover, the Kd in the assay with 5073 Fz4 C12 amounted to 0.422 nM; in the assay with 5054 Fz4 B5, 2.16 nM; with 5048 Fz4 A11, 3.71 nM; with 5075 Fz4 D2, 1.19 nM.
